Values of other authors, collected in paper PMC7609432.
Like-named read-outs stand apart in the source and are kept apart here.

How the values were obtained:
[1] = molecular target: IQGAP1 (Danio rerio); experiment: SW-FCCS
[2] = molecular target: IQGAP1 (Danio rerio); experiment: SW-FCCS; remark: listed apart in the source

Sequence of IQGAP1 (Danio rerio) (P46940 2-1657): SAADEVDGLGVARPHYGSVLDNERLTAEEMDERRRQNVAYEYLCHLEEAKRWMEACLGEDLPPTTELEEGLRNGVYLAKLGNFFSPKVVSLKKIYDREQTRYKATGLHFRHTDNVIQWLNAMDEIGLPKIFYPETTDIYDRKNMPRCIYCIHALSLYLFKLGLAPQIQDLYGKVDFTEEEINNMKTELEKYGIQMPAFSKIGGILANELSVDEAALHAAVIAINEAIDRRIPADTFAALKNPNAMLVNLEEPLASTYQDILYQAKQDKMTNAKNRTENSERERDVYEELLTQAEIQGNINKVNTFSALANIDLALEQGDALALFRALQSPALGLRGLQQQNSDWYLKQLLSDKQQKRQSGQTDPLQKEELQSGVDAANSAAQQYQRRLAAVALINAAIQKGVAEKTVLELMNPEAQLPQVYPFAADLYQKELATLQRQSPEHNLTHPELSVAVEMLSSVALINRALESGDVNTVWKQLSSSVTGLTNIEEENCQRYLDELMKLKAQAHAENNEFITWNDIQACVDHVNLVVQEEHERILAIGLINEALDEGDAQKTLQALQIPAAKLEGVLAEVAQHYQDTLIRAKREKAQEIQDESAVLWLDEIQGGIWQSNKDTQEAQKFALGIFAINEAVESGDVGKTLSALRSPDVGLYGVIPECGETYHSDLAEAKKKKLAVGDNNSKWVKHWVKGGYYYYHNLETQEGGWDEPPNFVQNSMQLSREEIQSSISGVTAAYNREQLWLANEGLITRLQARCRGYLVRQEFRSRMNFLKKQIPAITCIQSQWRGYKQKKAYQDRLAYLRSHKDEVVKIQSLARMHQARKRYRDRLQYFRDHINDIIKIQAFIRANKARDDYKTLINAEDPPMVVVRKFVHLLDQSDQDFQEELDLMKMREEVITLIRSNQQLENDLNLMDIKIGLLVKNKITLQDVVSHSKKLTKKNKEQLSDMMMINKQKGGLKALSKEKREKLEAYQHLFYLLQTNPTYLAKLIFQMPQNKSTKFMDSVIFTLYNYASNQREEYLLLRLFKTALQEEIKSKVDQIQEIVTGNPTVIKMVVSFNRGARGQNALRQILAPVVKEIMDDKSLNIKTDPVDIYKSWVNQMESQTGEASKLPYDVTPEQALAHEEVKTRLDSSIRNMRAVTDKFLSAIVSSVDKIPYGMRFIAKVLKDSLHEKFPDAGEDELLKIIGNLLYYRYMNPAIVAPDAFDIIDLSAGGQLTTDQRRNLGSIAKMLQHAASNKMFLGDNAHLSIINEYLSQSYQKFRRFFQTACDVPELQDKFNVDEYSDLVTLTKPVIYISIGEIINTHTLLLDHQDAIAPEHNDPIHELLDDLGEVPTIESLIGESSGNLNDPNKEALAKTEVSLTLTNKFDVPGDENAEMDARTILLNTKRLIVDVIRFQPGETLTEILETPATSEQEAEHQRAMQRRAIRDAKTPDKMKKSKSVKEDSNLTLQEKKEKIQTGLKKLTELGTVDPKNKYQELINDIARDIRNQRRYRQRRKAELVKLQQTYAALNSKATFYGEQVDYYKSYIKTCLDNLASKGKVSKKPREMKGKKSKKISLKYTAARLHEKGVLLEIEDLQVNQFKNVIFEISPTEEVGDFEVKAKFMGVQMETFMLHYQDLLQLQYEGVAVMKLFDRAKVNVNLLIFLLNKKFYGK

Kd [1]: > 1500 nM | Kd [2]: 105 nM
Substance: Cdc42 (from UniProt P60953)
